B1: recombinant human N-acetylgalactosamine-6-sulfatase (GALNS), purified, produced from G71S clone 4 co-expressing human SUMF1 (enzyme)
chain: APQPPNILLLLMDDMGWGDLGVYGEPSRETPNLDRMAAEGLLFPNFYSANPLCSPSRAALLTGRLPIRNGFYTTNAHARNAYTPQEIVGGIPDSEQLLPELLKKAGYVSKIVGKWHLGHRPQFHPLKHGFDEWFGSPNCHFGPYDNKARPNIPVYRDWEMVGRYYEEFPINLKTGEANLTQIYLQEALDFIKRQARHHPFFLYWAVDATHAPVYASKPFLGTSQRGRYGDAVREIDDSIGKILELLQDLHVADNTFVFFTSDNGAALISAPEQGGSNGPFLCGKQTTFEGGMREPALAWWPGHVTAGQVSHQLGSIMDLFTTSLALAGLTPPSDRAIDGLNLLPTLLQGRLMDRPIFYYRGDTLMAATLGQHKAHFWTWTNSWENFRQGIDFCPGQNVSGVTTHNLEDHTKLPLIFHLGRDPGERFPLSFASAEYQEALSRITSVVQQHQEALVPAQPQLNVCNWAVMNWAPPGCEKLGKCLTPPESIPKKCLWSH
modifications: Cys at position 53 of the precursor (position 79 of SEQ ID NO:4) converted to Calpha-formylglycine (FGly), about 90%; N-linked glycosylation at Asn178 (bis-phosphorylated mannose 7, BPM7) and Asn397 (oligomannose-type), precursor numbering; 0.58 mol M6P (BPM7)/mol GALNS
B2: recombinant human N-acetylgalactosamine-6-sulfatase (GALNS), purified, produced from G71S clone C2 co-expressing human SUMF1 (enzyme)
chain: B1 chain
modifications: Cys at position 53 of the precursor (position 79 of SEQ ID NO:4) converted to Calpha-formylglycine (FGly); N-linked glycosylation at Asn178 (BPM7) and Asn397; 0.69 mol M6P/mol GALNS

How the values were obtained:
[1] = biological target: mannose-6-phosphate (M6P) receptor; experiment: M6P receptor plate binding assay: receptor coated at 4 ug/mL, GALNS 0.16-10 nM, bound GALNS read by enzyme activity, single-site binding fit
[2] = biological target: mannose-6-phosphate (M6P) receptor; experiment: M6P receptor affinity column (Affi-Gel 15), 6 ug GALNS loaded, eluted with mannose-6-phosphate gradient, quantified by GALNS ELISA
[3] = biological target: mannose-6-phosphate (M6P) receptor; experiment: M6P receptor plate binding assay

Row | Binder | Kd [1] [nM] | M6P Receptor Column Binding: % Bound [2] [%] | Kd [3] [nM]
1 | B1 | 2.4 | 56 | –
2 | B2 | – | – | 5.7
